# Source: a protein production outcome set (Wang et al. 2014)
# Test: label from the status in PepcDB records
# 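Further: failed if final PepcDB status was selected cloned or expressed and not failed if soluble or beyond.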
row,Sequence,protein production
1,MKNSENDYIQSLFQILPGLLTAFLVACLSKFLAIWLPSLGAATIAILLGIFLGNTFVRGANLNRGTKVAESKLLEFSVVLLGTTVTFQTIAQIGLQGVAFILIQMSLTIIFAYLIGKKLAFSDNMSLLMAGGNAVCGSSAIASIAPAIQADEEEKGQIITLVNLLGTVLMLTLPILSGILYGTNLLARSALIGGTLQSVGQVVASANMVNENAVQLAMLFKIMRIVLLVAVVYLFGRFKQSKTAESEAELVEVTKKSSALPWYVVGFFIACVFNSLIHFPVVISETAHFFSSWFEITALAAIGLRLDFKKFFQEGKRFLIYGLSVGTVQVVLAILLLALLQF,failed
2,MKNVEVLTGDPKKAILKLSAPMVVSNLIFTLYNLVDGIWVAGLGPDALSAVGLFFPIFFVFIAISFGLSVGANSAVSRRIGAKRYDAACVAATLAVAMGILVSIPMTLSVVFLNGVMVFLGADGEILRLAVDYGSIMVLGSVFLVFSNVSAGILNGEGNARMAMYANAAGSLLNMVLDPIFIYLLGYGIAGAAIASVISMALSSIVFSFWFLSGRSYVRFRVAGWNLPTVFDLLRVGMPASLSMLTMSVAFMLINRVVIETGGSEGLAAYTSAWRLIQFGFVPLFGVSAALTAVSGAAYGARNPRKIGESLNYTVKLLLAVDAAILALMVAFAPQIALIFTYTEVSAVMYEEIVRTIRIAAFVLLFAPLGVSSSAVFQGMGKGERSFAITVLRAIVFQVSLCYVLAVPFGFDGVLLGFVLGEALGCFTGFSWVRLTVRRLERCLLST,failed
3,MKPALRRGLVWIGCTASSWGGLVLPSAWSPAAIAQTRAPTNQTGMQLQINGRAIAGQWVVEPASQGSFIWIEEVALRNGLGLELLPGLSTTRQAIRWFSDGRVAEGVEQVPARRQNGRRFLEVSSLARRSGWSLAVLADQLVIQLPAATLRNLRDGQQGANRRLVLDFDRPTPWEWDAIGQQLRFDGSVPAQLVPSLQRYGIQAEQQGDRTSLRLPAGLGVRVSSLGSPDRIFIDLPTTTGLLSPPAGLGSNPAPLTPAPPDLAGTQLQQRQVTVDGATFPVFVIQLDLRQPNVRLAPIWAGNGSLEGTQVLQAVARDRGAAIAINAGFFNRNNRLPLGAIRRDNIWYSGPILNRGAMAWNDQGEVLIDRLGLQETLQLSSGTRIPLVALNSGYVRAGAARYTEAWGNSYQTILDNEVVVTVQGDRVVSQSQADKAGSNRFTIPRNGYLIVLRSANSLRTSLVNGTTIQVLQQAQPSQFDRFPHALGGGPLLVKSGRVVVNPQAEGFSRAFEIEAAPRSAIGLMPDGRLVLVAAHEQNQGQGPTLPQMAAIMQQLGVVDALNFDGGSSTSLIVNGQLVNRARGSAARVHNGLGVFLGPTTPASLR,failed
4,MKPDIYENNREGILCVYKNEKWLVCIKNWKPDNDIEGIAHLEIHHSTDEQFILSAGKAILITAEKENDKFNIELTLMEKGKVYNVPAECWFYSITQKDTKMMYVQDSNCSMDNSDFCDLSKEEIEYIQTNARKLFEK,not failed
5,MKPLKEYLLIPTQMRVFETQTQAIETSLSVNAQTSESSEAFTVKKDPHEIKVTGKKSGESELVYDLAGFPIKKTKVHVLPDLKVIPGGQSIGVKLHSVGVLVGFHQINTSEGKKSPGETAGIEAGDIIIEMNGQKIEKMNDVAPFIQKAGKTGESLDLLIKRDKQKIKTKLIPEKDEGEGKYRIGLYIRDSAAGIGTMTFYEPKTKKYGALGHVISDMDTKKPIVVENGEIVKSTVTSIEKGTGGNPGEKLARFSSERKTIGDINRNSPFGIFGTLHQPIQNNISDQALPVAFSTEVKKGPAEILTVIDDDKVEKFDIEIVSTTPQKFPATKGMVLKITDPRLLKETGGIVQGMSGSPIIQNGKVIGAVTHVFVNDPTSGYGVHIEWMLSEAGIDIYGKEKASLEHHHHHH,not failed
6,MKPNNVNNQNKRHQSRWVITSATAMILTTLTIASQAAAADDTVTTTTNEPTNSQLNTNTQVNATQVNLKADTSTSVSTIKSDQSAVAATSPTTSTGSPSEHSSSVNTNPQQQSANPASQSQATTTSESTPTTDIKHPTQTAPAQTTSASTTEPTTESNTESATDSQAKATTTDNQASKQPSQQAVPASSNSTTTEVNTQSATSSASTDDKIVTNVNQEKLVLKTNQPVVRAISRTASENINDWMPNTLLQQEVLSQLRKQNPDRTWNSAADITKADMLLLTTYYGKDTYIDGKTSYSLEGLQYATNLTTVWLNNNLNAPSGSYYSDVTDISPLANLQKLQVVNIQQNRITDISPLANLKNLTEVDAAYNHISDFSPLKGFKNLKGTFSNQFITLPPAYISADNNIATLAIDCYLPDGSKVQLKPNNGVGETVFYKNGQLYVRWYFNGAGGGNYDSNGHIYYTNMKPQQPGLTGPTFNGTTVIPMDDYYFMTAASDGNNFVVVRPYVLAATAAPITVKYVDALTGESLVTADLTLNGIVGQPYTTQRIDDELPNYDFTNIVGNASGVFTADAQTVTYYYTRKDAGDITIHMVDTNGNLVYEPQILPGKHNLGNAYNLDAPTFDHFKLHQTIGNAAGVFTTDPQSITFVYVRLDAGNITVKYQDKQGHQLKPDKTVSGSQSLGQTYTTEPLGIENYTLMTTPANATGTFTDQEQTVIYVYVRRDAGQIVVKYQDSAGNPLAPDKLLDGKEQLGVAYQTAAISIPNFYLVATPANATGTFSTDTQTVIYQYARSNAGHITVKYQDANGTTLAPDDVLTGDGQLGRPYQTSAKTIENYRLIQTPANATGQFSDQAQTVIYVYTREDAGDITVQYLDENGQQLAADSVLSGQGQLGQPYETSPLNINGYTVKSTQGNTTGTYTVQPQRVVYIYERTAGQPVTAKYQDQDGKSIHPDVVHSGYLGDNYSTEQLVIDGYTFKAVQGDVSGTFGTSAKTVTYVYTESTPTIPDTQGTVTVHYVTKDGIKLNEPTVLSGKTGTTYQTVPLTFTDHELVGQPENATGLFTADNVDVTYVYQATDTTGTDDIIDPEEPEQPTKPIKPTTPETPNEPGTTVTQPDRIKPTQPAVAVKPAATVKPTLKPAAAQASLVKTTSPVTEHSAQLPQTDEQTGKLAVILGLLLSVVTLGFYGKNRQS,failed
7,MKPQVYHVDAFTSQPFRGNSAGVVFPADNLSEAQMQLIARELGHSETAFLLHSDDSDVRIRYFTPTVEVPICGHATVAAHYVRAKVLGLGNCTIWQTSLAGKHRVTIEKHNDDYRISLEQGTPGFEPPLEGETRAAIINALHLTEDDILPGLPIQVATTGHSKVMIPLKPEVDIDALSPDLNALTAISKKIGCNGFFPFQIRPGKNETDGRMFSPAIGIVEDPVTGNANGPMGAWLVHHNVLPHDGNVLRVKGHQGRALGRDGMIEVTVTIRDNQPEKVTISGTAVILFHAEWAIEL,not failed
8,MKPSCRPGAALEADRCPSFPDRSAATPHRGLAWAMAVVLIGGCATTRDIEQLQTTSQREPTNAQLKLKYMDERDRQVKDLLDGADRLRLIHDFDRAQVLLLQALRLDPGNERGRRIAAAIDVDRRNGAVLQEAERMMARGSYDGAAERVERVLAETPNDAGALRLYREISEKRRLQKQAAEEKNAAASIMRKPVSLQFRDANVRMVFEALSRTTGLSVIFDRDVRVDLKTTIFVSNASLEDTVDMILLQNQLAKKVLNANTVFIYPATPAKQQEYQDLKVRTFQLSNTDAKHIDTLLKNLLKIKEIVTDERANTVSIRATPETIRVAERMIAAQDLPEPEVMLEVEVLEVSRDRLTDLGIDWPNSFSLGTPSSASTWGALHHLTVNQLTASGLSVTANLKLTDTDANLLASPRIRTRNKEKAKILIGDKVPVISSSSVPSTSGPVYSQSIQYLDVGIKLEVEPQVYRDNDVGIKMSLEVSNITQIISSSNAQTGLSSLAYQIGTRNASTTLRLKDGETQILGGLIQDEDRDAANKVPGLGQLPVLGRLFSNHNGDHKKTEIVLQITPHIVRPQLAADADTREIWSGTDSTVRTEQLRLDPPGVAAPATPAAPAAPAAALPAPAAGVAVVSPGAVGGGTTGGEQTPKAAAPAAAGGVVPPNGAFGQPPAAPRTTPPPAMFGGRFMTTVPPPEGVVPPAPPAPAAAPAAVAAPAAAAPAAPAAGTAGPEAAAAVSPTEAAPPAPAPAAPYTPAPAAPAAAPPAASPPPIVPTPPSDMPSDNPLHPIPTGAY,failed
9,MKPSTEWWRYLAPLAVIAIIALLPVPAGLENHTWLYFAVFTGVIVGLILEPVPGAVVAMVGISIIAILSPWLLFSPEQLAQPGFKFTAKSLSWAVSGFSNSVIWLIFAAFMFGTGYEKTGLGRRIALILVKKMGHRTLFLGYAVMFSELILAPVTPSNSARGAGIIYPIIRNLPPLYQSQPNDSSSRSIGSYIMWMGIVADCVTSAIFLTAMAPNLLLIGLMKSASHATLSWGDWFLGMLPLSILLVLLVPWLAYVLYPPVLKSGDQVPRWAETELQAMGPLCSREKRMLGLMVGALVLWIFGGDYIDAAMVGYSVVALMLLLRIISWDDIVSNKAAWNVFFWLASLITLATGLNNTGFISWFGKLLAGSLSGYSPTMVMVALIVVFYLLRYFFASATAYTSALAPMMIAAALAMPEIPLPVFCLMVGAAIGLGSILTPYATGPSPIYYGSGYLPTADYWRLGAIFGLIFLVLLVITGLLWMPVVLL,failed
10,MKPTMMTYINEEEEMCRVILADFQTNAEKLESLVKNGAKEWLILATGSSLNAAQSAKYYIENLADVRITIEEPFNHLYYEKLSSHLDLVIGISQSGQSTSTISALERVKKEASVPVVALTSDVTSEIAEFADITLDIGSGKERVGYVTKGFTATVLTLMLTGLHFAYKTVQIDETRFNNEISAFSRAIDAIPATIAETEAFYERWQEEFATAPKFTAIGYGPTVGTCKEFETKFSETVRVPSQGLDLEAFMHGPYLEVNPQHRIFFLETASAVTERLVLLRDYESKYTPFTYTVKFGKGEDDRTLVIPTDLDEYQAPFLMILPFQILAHHIAELKGNKLTERIYTDFGVAMKSKTKPGDYA,not failed
11,MKPTNKAQDDDAVFALSTEVNHKLDLHQSSAEALRLAGVYTRQSCVLDLYHGYRSDDEDTEPDEEDGRLQTVREYHENGMLKLMRTFVRRLRRDATDPTAESSYYDRVVEEKHYDPSGICRVDMHFALGQPYLYRKHYYPNNRLKSEKVFFVEDEETMRARKVGHWRTYYENGNIQSEIIYNKDGVRCGFCKRYAIDGAIEWVKDYTREQEERLQAFNAKRGNLDLTVTDAARVLGLEGDWCSHVVNRTFRSKCAPLHPDWRRTAGDKAGETWEEEQRTEAFIRLSRAREVLLKFLETHPRECSCERGGA,not failed
12,MKPVFLDFEQPIAELTNKIDELRFVQDESAVDISDEIHRLQKKSNDLTKSIFSKLTPAQISQVSRHPQRPYTLDYIEALFTDFEELHGDRHFADDYAIVGGLARFNGQSVMVVGHQKGRDTKEKIRRNFGMPRPEGYRKALRLMKTAEKFGLPVMTFIDTPGAYPGIGAEERGQSEAIGKNLYELTRLRVPVLCTVIGEGGSGGALAVALGDYVNMLQYSTYSVISPEGCASILWKTAEKAADAAQALGITADRLQKLDLVDTVIKEPLGGAHRDFGQTMKNVKAVLEKQLHEAQSIPLADLLSRRFDRIMAYGKFSEQ,not failed
13,MKPVKVGICGLGTVGGGTFNVLQRNAEEIARRAGRGIEVAQIAVRTPNPNCQIGSTPTTSDVFAVATNPEIDIVVELIGGYTLARELVLKAIENGKHVVTANKALIAVHGNEIFAKAREKGVIVAFEAAVAGGIPVIKAIREGLSANRINWVAGIINGTGNFILTEMREKGRTFPDVLAEAQALGYAEVDPTFDVEGIDAAHKLTILASIAFGIPLQFDKAYTEGITKLTTADVNYAEALGYRIKHLGVARSTAQGIELRVHPTLIPADRLIANVNGVMNAVMVNGDASGSTLFYGAGAGMEPTASSVVADLVDVVRAMTSDPENRVPHLAFQPDSLSAHPILPIEACESAYYLRIQAKDHPGVLAQVASILSERGINIESIMQKEVEEHDGLVPMILLTHRVVEQRINDAIQALEALQDVVGPVVRIRVEHLN,not failed
14,MKQFGGPVLFLDRSDINTDEIIPAKYLTEITKEDLKPYILEDLKLPGFDPKGEKTKTARVVVSRANFGCGSSREHAPWVFEVNGITAVIAESFARIFRQNMFNCGMAAIELSADTIEGLFTYAGCADAAISIDVAGQTLTISGGGTSETHSFDISPFDKALVLAGGWVDYADSKY,failed
